Measured values from article PMC7037157, “Parallel Strategy Increases the Thermostability and Activity of Glutamate Decarboxylase” (Molecules, 2020).

B1: GAD (glutamate decarboxylase; GAD1407) (Levilactobacillus brevis; N193D) (protein)
chain: MAMLYGKHTHETDETLKPIFGASAERHDLPKYKLAKHALEPREADRLVRDQLLDEGNSRLNLATFCQTYMEPEAVELMKDTLEKNAIDKSEYPRTAEIENRCVNIIANLWHAPEAESFTGTSTIGSSEACMLAGLAMKFAWRKRAKANGLDLTAHQPNIVISAGYQVCWEKFCVYWDIDMHVVPMDDDHMSLDVDHVLDYVDDYTIGIVGIMGITYTGQYDDLARLDAVVERYNRTTKFPVYIHVDAASGGFYTPFIEPELKWDFRLNNVISINASGHKYGLVYPGVGWVIWRDQQYLPKELVFKVSYLGGELPTMAINFSHSASQLIGQYYNFIRFGFDGYREIQEKTHDVARYLAKSLTKLGGFSLINDGHELPLICYELTADSDREWTLYDLSDRLLMKGWQVPTYPLPKNMTDRVIQRIVVRADFGMSMAHDFIDDLTQAIHDLDQAHIVFHSDPQPKKYGFTH
notes: pET28a(+)-GAD1407, expressed in E. coli BL21(DE3), Ni-NTA purified (His tag)
B2: GAD (glutamate decarboxylase; GAD1407) (Levilactobacillus brevis; S325A) (protein)
chain: MAMLYGKHTHETDETLKPIFGASAERHDLPKYKLAKHALEPREADRLVRDQLLDEGNSRLNLATFCQTYMEPEAVELMKDTLEKNAIDKSEYPRTAEIENRCVNIIANLWHAPEAESFTGTSTIGSSEACMLAGLAMKFAWRKRAKANGLDLTAHQPNIVISAGYQVCWEKFCVYWDIDMHVVPMDDDHMSLNVDHVLDYVDDYTIGIVGIMGITYTGQYDDLARLDAVVERYNRTTKFPVYIHVDAASGGFYTPFIEPELKWDFRLNNVISINASGHKYGLVYPGVGWVIWRDQQYLPKELVFKVSYLGGELPTMAINFSHSAAQLIGQYYNFIRFGFDGYREIQEKTHDVARYLAKSLTKLGGFSLINDGHELPLICYELTADSDREWTLYDLSDRLLMKGWQVPTYPLPKNMTDRVIQRIVVRADFGMSMAHDFIDDLTQAIHDLDQAHIVFHSDPQPKKYGFTH
notes: as for B1
B3: GAD (glutamate decarboxylase; GAD1407) (Levilactobacillus brevis; D203E) (protein)
chain: MAMLYGKHTHETDETLKPIFGASAERHDLPKYKLAKHALEPREADRLVRDQLLDEGNSRLNLATFCQTYMEPEAVELMKDTLEKNAIDKSEYPRTAEIENRCVNIIANLWHAPEAESFTGTSTIGSSEACMLAGLAMKFAWRKRAKANGLDLTAHQPNIVISAGYQVCWEKFCVYWDIDMHVVPMDDDHMSLNVDHVLDYVDEYTIGIVGIMGITYTGQYDDLARLDAVVERYNRTTKFPVYIHVDAASGGFYTPFIEPELKWDFRLNNVISINASGHKYGLVYPGVGWVIWRDQQYLPKELVFKVSYLGGELPTMAINFSHSASQLIGQYYNFIRFGFDGYREIQEKTHDVARYLAKSLTKLGGFSLINDGHELPLICYELTADSDREWTLYDLSDRLLMKGWQVPTYPLPKNMTDRVIQRIVVRADFGMSMAHDFIDDLTQAIHDLDQAHIVFHSDPQPKKYGFTH
notes: as for B1
B4: GAD (glutamate decarboxylase; GAD1407) (Levilactobacillus brevis) (protein)
chain: MAMLYGKHTHETDETLKPIFGASAERHDLPKYKLAKHALEPREADRLVRDQLLDEGNSRLNLATFCQTYMEPEAVELMKDTLEKNAIDKSEYPRTAEIENRCVNIIANLWHAPEAESFTGTSTIGSSEACMLAGLAMKFAWRKRAKANGLDLTAHQPNIVISAGYQVCWEKFCVYWDIDMHVVPMDDDHMSLNVDHVLDYVDDYTIGIVGIMGITYTGQYDDLARLDAVVERYNRTTKFPVYIHVDAASGGFYTPFIEPELKWDFRLNNVISINASGHKYGLVYPGVGWVIWRDQQYLPKELVFKVSYLGGELPTMAINFSHSASQLIGQYYNFIRFGFDGYREIQEKTHDVARYLAKSLTKLGGFSLINDGHELPLICYELTADSDREWTLYDLSDRLLMKGWQVPTYPLPKNMTDRVIQRIVVRADFGMSMAHDFIDDLTQAIHDLDQAHIVFHSDPQPKKYGFTH
notes: as for B1

substrate: N[C@@H](CCC(=O)O)C(=O)O; assay: initial rates; GABA dansylated, HPLC; assay type: biochemical, Levilactobacillus brevis; conditions: 0.2 mol/L HAc-NaAc buffer, pH 4.8, 10-100 mmol/L L-glutamate, standard assay 48 °C, 40 μmol/L PLP
Description: initial rates; GABA dansylated, HPLC on GAD (glutamate decarboxylase; GAD1407)

Question: With B1 as the protein, how does the Km read?
Answer: Its Km is 34.35 mM.

Question: And the kcat?
Answer: Its kcat is 138 s⁻¹.

Question: And the kcat/Km?
Answer: The kcat/Km was 4000 M⁻¹ s⁻¹.

Question: How did the Km turn out when B2 was run?
Answer: The Km was 42.39 mM.

Question: What about the kcat of the same protein?
Answer: The kcat was 176 s⁻¹.

Question: What about the kcat/Km of the same protein?
Answer: Its kcat/Km is 4160 M⁻¹ s⁻¹.

Question: Which results are given for B3?
Answer: Km: 26.60 mM; kcat: 40.2 s⁻¹; kcat/Km: 1510 M⁻¹ s⁻¹

Question: What does the source list for B4?
Answer: Km: 39.72 mM; kcat: 102 s⁻¹; kcat/Km: 2570 M⁻¹ s⁻¹
